In article PMC11429998 (bioRxiv, 2024):

Legend:
[1] = biological target: PseCAST Cas7 (Pseudoalteromonas); experiment: cryo-EM structure
cryo-EM structure = biological target: the molecule itself; experiment: cryo-EM structure

Molecule	stoichiometry N [1]	stoichiometry N (cryo-EM structure)
PseCAST Cas7 (natural protein)	6	–
PseCAST TniQ (natural protein) MAFLFSPKIGPFFDESLESYLLRVVSENFFDSYEGLSLAIREELHELDFEAHGAFPIDLKRLNVYHAKHNSHFRMRALGLLETLLDLPRYELQKLALLKSDIKFNSSAALYKGGVDIPQRFICYHTEEAVDSIPVCPQCLAEEAYIKQSWHIKWVNACAKHQCTLVHKCPECCAPINYIENESITHCSCGFELSCGSTSPVNTLSIDHLNKLLNKSELDDNNPLFKNTTLTERFAALLWYQERYSKEETFCLDDVVNYFNGWPVVFYKELDELSKNAAMKLIDLFNKTEFKFIFGNAILSCPNTQKQREPHFIYSTLLDYLATLVESNPKTKKPNVADLLVSVLEAATLLSISIEQVYRLYQDGILQTAFRHKMNQRINPYKGVFFLRHVIEYKTSFGNDKARMYLSAW	–	2
